Molecular target: Human thyroid-stimulating hormone receptor (human) (UniProt P16473)
Chain of UniProt P16473 (P16473 21-764): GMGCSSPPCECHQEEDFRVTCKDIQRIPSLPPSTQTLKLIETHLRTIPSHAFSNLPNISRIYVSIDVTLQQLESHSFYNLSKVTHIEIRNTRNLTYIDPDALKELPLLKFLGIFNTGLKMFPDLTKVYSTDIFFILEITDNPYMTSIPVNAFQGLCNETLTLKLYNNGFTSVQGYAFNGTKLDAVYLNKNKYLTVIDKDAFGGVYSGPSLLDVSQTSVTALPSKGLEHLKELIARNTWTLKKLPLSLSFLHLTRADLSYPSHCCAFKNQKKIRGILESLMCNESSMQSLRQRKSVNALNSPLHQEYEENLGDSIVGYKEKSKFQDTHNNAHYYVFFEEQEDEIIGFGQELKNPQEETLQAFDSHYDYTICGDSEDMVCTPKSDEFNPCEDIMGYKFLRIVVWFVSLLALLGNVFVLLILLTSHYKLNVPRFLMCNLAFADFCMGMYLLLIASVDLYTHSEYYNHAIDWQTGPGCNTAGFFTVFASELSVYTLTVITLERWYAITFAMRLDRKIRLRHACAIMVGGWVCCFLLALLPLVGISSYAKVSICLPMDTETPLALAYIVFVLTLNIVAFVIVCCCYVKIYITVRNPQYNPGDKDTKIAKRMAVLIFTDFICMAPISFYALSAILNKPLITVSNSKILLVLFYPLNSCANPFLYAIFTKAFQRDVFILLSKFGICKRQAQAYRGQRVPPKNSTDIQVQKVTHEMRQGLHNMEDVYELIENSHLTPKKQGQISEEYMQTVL

- EC50 of the NFAT-driven luciferase reporter (RLU) in HEK293-TSHR/NFAT-Luc cells seeded at 0.8 × 10^5 cells/mL, serially diluted rhTSH: 0.32
Substance: Recombinant human thyroid-stimulating hormone (from UniProt P01215 25-116; P01222 21-132) (ligand)

Reference: PMC11901838
